Experiment [1] deals with T1, human IL-17A (human, UniProt Q16552 24-155, limits assumed).
T1 construct: Used as analyte in the Octet tests, as immobilised antigen in ELISA and as cytokine in the HT1080 cell test; also called human recombinant IL-17A; Interleukin 17
The experiment in a line: cell-based or functional assay.

A further experiment concerns the target T2, rat IL-17A (rat, UniProt Q61453 18-150, limits assumed).
T2 sequence (looked up): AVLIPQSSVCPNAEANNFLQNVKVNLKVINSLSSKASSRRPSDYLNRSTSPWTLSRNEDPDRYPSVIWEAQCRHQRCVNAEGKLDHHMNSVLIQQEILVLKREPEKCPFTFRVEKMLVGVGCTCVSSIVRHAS
Put plainly: BLI (OctetRed 96), BCD109 immobilised on AR2G sensors, IL-17A as analyte.

The target in experiment [2] is T1, human IL-17A. Put plainly: BLI (OctetRed 96), BCD109 on AR2G sensors, 1:1 model; analyte 17,1 nM (heading: 'Human ... IL17 Fc'); Full R^2 0,775434.
Method: (§1) The test was conducted at a temperature of 30° C. and using PBS with 0.1% Tween-20 and 0.1% BSA as a working buffer.
(§2) Binding curves (after subtracting a reference signal) were analyzed using Octet Data Analysis software (Version 7.0) in accordance with the standard procedure and using 1:1 interaction model.
Experiment [3] concerns the target T1, human IL-17A. The experiment in a line: BLI (OctetRed 96), BCD109 on AR2G sensors, 1:1 model; analyte 34,3 nM (heading: 'Human ... IL17 Fc'); Full R^2 0,744563.
Method: as §1, §2
Experiment [4] concerns the target T1, human IL-17A. The experiment in a line: BLI (OctetRed 96), BCD109 on AR2G sensors, 1:1 model; analyte 68,6 nM (heading: 'Human ... IL17 Fc'); Full R^2 0,383582.
Method: as §1, §2
The target in experiment [5] is T3, monkey IL-17A (monkey).
T3 chain: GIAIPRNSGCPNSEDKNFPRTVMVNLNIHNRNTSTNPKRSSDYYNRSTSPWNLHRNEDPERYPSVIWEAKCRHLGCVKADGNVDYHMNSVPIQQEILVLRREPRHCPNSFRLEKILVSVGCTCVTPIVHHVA
The experiment in a line: BLI (OctetRed 96), BCD109 on AR2G sensors, 1:1 model; analyte 17,2 nM (heading: 'Macaque ... IL17 Fc'); Full R^2 0,753773.
Method: as §1, §2

Experiment [6] has as its target T3, monkey IL-17A. Put plainly: BLI (OctetRed 96), BCD109 on AR2G sensors, 1:1 model; analyte 34,4 nM (heading: 'Macaque ... IL17 Fc'); Full R^2 0,061979.
Method: as §1, §2
Experiment [7] concerns the target T3, monkey IL-17A. The experiment in a line: BLI (OctetRed 96), BCD109 on AR2G sensors, 1:1 model; analyte 68,7 nM (heading: 'Macaque ... IL17 Fc'); Full R^2 0,672159.
Method: as §1, §2

The values that follow come from patent publication US20200031952A1 (CLOSED JOINT STOCK COMPANY BIOCAD, published 2020).

Bounds are passed on as bounds.

Method for rat IL-17A: as §1, §2

“AIN457 (anti-IL-17A antibody by Novartis)”: the IC50, picomole as defined by the cell IL6 test in the experiment with human IL-17A [1] is 1100 picomole.

B1: BCD109 (antibody, V domains shown)
VH: QVQLVQSGGGLVQAGGSLRLSCAASGGTFATSPMGWLRQAPGKGTEFVAAISPSGGDRIYADSVKGRFTISRDNAGYFIYLQMNSLKPEDTAVYYCAVRRRFDGTSYYTGDYDSWGQGTLVTVSS
VL: EIVLTQSPGTLSLSPGERATLSCRASQSVSSSYLAWYQQKPGQAPRLLIYDASSRATGIPDRFSGSGSGTDFTLTISRLEPEDFAVYYCQQYSYSPVTFGQGTKVEIKR
notes: IgG1, transiently expressed; also called BCD109 antibody; BCD109 candidate; copies: 2 + 2
One may read the Kd as a measure of binding affinity in units of concentration. As for B1, in the experiment with rat IL-17A, the binding result is on record as “no binding (tested: 126 nM to 2 nM titrated)”. For the same molecule, the Kd in the experiment with human IL-17A [2] was 4.4 pM; with human IL-17A [3], < 1 pM; in the experiment with human IL-17A [4], < 1 pM; in the experiment with monkey IL-17A [5], < 1 pM; in the experiment with monkey IL-17A [6], < 1 pM; with monkey IL-17A [7], < 1 pM.
